How the values were obtained:
[1] = target: g12 mutant (Env protein) of the HIV-1 isolate 133 (HIV-1 primary isolate 133); test: capture ELISA on lysates and supernatants, F105 1 µg/ml
[2] = target: g12 mutant (Env protein) of the HIV-1 isolate 133 (HIV-1 primary isolate 133); test: capture ELISA, 17b 1 µg/ml

F105 human monoclonal antibody (NIBSC) was tested. Which signal relative to the native protein [1] did it give?
The signal relative to the native protein was less than 4.5 times.

With 17b human monoclonal antibody as the substance, how does the signal relative to the native protein [2] read?
The signal relative to the native protein was 3 times.

Reference: patent publication US20050065320A1
